Target: T1, human transferrin receptor (BIAcore, construct not stated) (human, UniProt P02786 89-760)
T1 construct: also called huTfR
Test: SPR, 25 C

T1 sequence (P02786 89-760): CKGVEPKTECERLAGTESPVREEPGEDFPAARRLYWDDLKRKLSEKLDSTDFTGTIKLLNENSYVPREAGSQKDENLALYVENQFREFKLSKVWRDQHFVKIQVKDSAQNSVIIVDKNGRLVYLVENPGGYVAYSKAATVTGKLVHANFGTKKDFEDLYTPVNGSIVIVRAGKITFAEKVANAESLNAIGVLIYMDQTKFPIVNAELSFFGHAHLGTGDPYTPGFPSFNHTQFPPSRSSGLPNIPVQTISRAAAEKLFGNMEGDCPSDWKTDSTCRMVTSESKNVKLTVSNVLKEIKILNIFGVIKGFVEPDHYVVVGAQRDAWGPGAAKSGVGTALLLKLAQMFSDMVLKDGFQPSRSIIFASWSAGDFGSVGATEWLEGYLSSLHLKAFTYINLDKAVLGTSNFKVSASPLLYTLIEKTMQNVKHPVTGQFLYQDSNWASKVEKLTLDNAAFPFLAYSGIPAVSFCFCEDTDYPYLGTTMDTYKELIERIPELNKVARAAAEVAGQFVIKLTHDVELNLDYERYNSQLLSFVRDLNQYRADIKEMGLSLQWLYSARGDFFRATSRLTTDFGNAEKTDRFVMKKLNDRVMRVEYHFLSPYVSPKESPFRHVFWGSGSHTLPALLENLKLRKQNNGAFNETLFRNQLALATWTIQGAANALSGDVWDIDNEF

Binder | koff
clone 299 VH 20 / VL 0 (rb) (antibody, V domains shown) VH: QSMQESGPGLVKPSQTLSLTCTVSGFSLSSYAMSWIRQHPGKGLEWIGYIWSGGSTDYAPSLKSRVTISVDTSKNQVSLKLSSVTAADTAVYYCARRYGTSYPDYGDANGFDPWGQGTLVTVSS VL: AYDMTQTPASVEVAVGGTVTIKCQASQSISSYLSWYQQKPGQRPKLLIYRASTLASGVSSRFKGSGSGTQFTLTISGVECADAATYYCQQCYSSSNVDNTFGGGTEVVVK | 0.00111 s⁻¹
clone 299 VH 15 / VL 0 (rb) (antibody, V domains shown) VH: QQLQESGPGLVKPSETLSLTCTVSGFSLSSYAMSWVRQPPGKGLEWIGYIWSGGSTDYNPSLKSRVTISVDTSKNQVSLKLSSVTAADTAVYYCARRYGTSYPDYGDANGFDPWGQGTLVTVSS VL: AYDMTQTPASVEVAVGGTVTIKCQASQSISSYLSWYQQKPGQRPKLLIYRASTLASGVSSRFKGSGSGTQFTLTISGVECADAATYYCQQCYSSSNVDNTFGGGTEVVVK | 0.000763 s⁻¹
clone 299 VH 11 / VL 9-NYA (antibody, V domains shown) VH: QQLLESGGGLVQPGGSLRLSCAASGFSLSSYAMSWVRQAPGKGLEWVGYIWSGGSTDYADSVKGRFTISRDNSKNTLYLQMNSLRAEDTAVYYCARRYGTSYPDYGDANGFDPWGQGTLVTVSS VL: AIQLTQSPSSLSASVGDRVTITCRASQSISSYLAWYQQKPGKAPKLLIYRASTLASGVPSRFSGSGSGTDFTLTISSLQPEDFATYYCQQNYASSNVDNTFGGGTKVEIK | 0.00242 s⁻¹
clone 299 VH 0 (rb) / VL 14 (antibody, V domains shown) VH: QSMEESGGRLVTPGTPLTLTCTVSGFSLSSYAMSWVRQAPGKGLEWIGYIWSGGSTDYASWAKGRFTISKTSTTVDLKITSPTTEDTATYFCARRYGTSYPDYGDANGFDPWGPGTLVTVSS VL: DIVMTQSPDSLAVSLGERATINCKSSQSISSYLSWYQQKPGQRPKLLIYRASTLASGVPDRFSGSGSGTDFTLTISSLQAEDVAVYYCQQSYSSSNVDNTFGGGTKVEIK | 0.00178 s⁻¹
clone 299 VH 0 (rb) / VL 15 (antibody, V domains shown) VH: QSMEESGGRLVTPGTPLTLTCTVSGFSLSSYAMSWVRQAPGKGLEWIGYIWSGGSTDYASWAKGRFTISKTSTTVDLKITSPTTEDTATYFCARRYGTSYPDYGDANGFDPWGPGTLVTVSS VL: DIVMTQSPDSLAVSLGERATINCKSSQSISSYLIWYQQKPGQPPKLLIYRASTLASGVPDRFSGSGSGTDFTLTISSLQAEDVAVYYCQQAYSSSNVDNTFGGGTKVEIK | 0.00663 s⁻¹

Now from value to binder:

koff | Binder
0.00219 s⁻¹ | clone 299 VH 12 / VL 9-NYA (antibody, V domains shown) VH: QVQLQESGPGLVKPSETLSLTCTVSGFSLSSYAMSWIRQPPGKGLEWIGYIWSGGSTDYNPSLKSRVTISVDTSKNQFSLKLSSVTAADTAVYYCARRYGTSYPDYGDANGFDPWGQGTLVTVSS VL: AIQLTQSPSSLSASVGDRVTITCRASQSISSYLAWYQQKPGKAPKLLIYRASTLASGVPSRFSGSGSGTDFTLTISSLQPEDFATYYCQQNYASSNVDNTFGGGTKVEIK
0.00139 s⁻¹ | clone 299 VH 13 / VL 9-NYA (antibody, V domains shown) VH: QVQLQESGPGLVKPSETLSLTCTVSGFSLSSYAMSWIRQPPGKGLEWIGYIWSGGSTDYNPSLKSRVTISVDTSKNQVSLKLSSVTAADTAVYYCARRYGTSYPDYGDANGFDPWGQGTLVTVSS VL: AIQLTQSPSSLSASVGDRVTITCRASQSISSYLAWYQQKPGKAPKLLIYRASTLASGVPSRFSGSGSGTDFTLTISSLQPEDFATYYCQQNYASSNVDNTFGGGTKVEIK
0.00221 s⁻¹ | clone 299 VH 18 / VL 9-NYA (antibody, V domains shown) VH: QVQLQESGPGLVKPSQTLSLTCTVSGFSLSSYAMSWIRQHPGKGLEWIGYIWSGGSTDYAPSLKSRVTISVDTSKNQFSLKLSSVTAADTAVYYCARRYGTSYPDYGDANGFDPWGQGTLVTVSS VL: AIQLTQSPSSLSASVGDRVTITCRASQSISSYLAWYQQKPGKAPKLLIYRASTLASGVPSRFSGSGSGTDFTLTISSLQPEDFATYYCQQNYASSNVDNTFGGGTKVEIK

From patent US20230220071A1 (Hoffmann-La Roche, published 2023)
